Blank lines part the entries; values can stand above or below the binder they belong to.
Experiments:
[1] = molecular target: T1, cell surface-bound human GPC3 on GPC3+ HepG2 cells (human, UniProt P51654 25-560, GPI anchor and heparin sulfate side chains, as the filing describes native GPC3); experiment: FACS, mIgG1 on GPC3-positive HepG2 cells, PE anti-mouse IgG (H and L); control mIgG1 median 93.8
T1 construct: Endogenous GPC3 of the HepG2 line; also called Glypican 3; native GPC3

[2] = molecular target: T2, full-length human GPC3 over-expressed on SK-Hep1-GPC3 cells (human, UniProt P51654 25-560); experiment: FACS, GPC3A L2K on SK-Hep1-GPC3 cells, APC anti-His; same L2K on GPC3-negative SK-Hep1 median 61.6
T2 construct: also called GPC3 over-expressing SK-Hep1 cells
Experimental: Cells were then washed once with PBS. APC-conjugated anti-His tag mouse antibody (R&D Systems) was added to the washed cells in a volume of 100 μl, at 20-fold dilution of 5% FBS in PBS and 0.05% NAN₃ and incubated for 1 hour at 4° C. in the dark. The cells were then washed twice with PBS. The cells were fixed in 3-fold dilution of fixation buffer (BioLegend) in PBS in a volume of 150 μl.

[3] = molecular target: T1, cell surface-bound human GPC3 on GPC3+ …; experiment: FACS on GPC3+ HepG2 cells, labelled on the sheet GPC3A L2K against control L2K; control L2K median 93.8; axis PE-A
Experimental: APC-conjugated anti-His tag mouse antibody (R&D Systems) was added in a volume of 100 μl, a 20-fold dilution of 5% FBS in PBS and 0.05% NaN₃ and incubated for 1 hour at 4° C. in the dark, then washed twice with PBS. The cells were fixed in 3-fold dilution of fixation buffer (BioLegend) in PBS in a volume of 150 μl.

[4] = molecular target: T1, cell surface-bound human GPC3 on GPC3+ …; experiment: apparent Kd from FACS on GPC3+ HepG2 cells
Experimental: (§1) APC-conjugated anti-His tag mouse antibody (R&D Systems) was added in a volume of 100 μl, a 20-fold dilution of 5% FBS in PBS and 0.05% NaN₃ and incubated for 1 hour at 4° C. in the dark, then washed twice with PBS. The cells were fixed in 3-fold dilution of fixation buffer (BioLegend) in PBS in a volume of 150 μl. As a separate control, HepG2 cells were also incubated with APC-conjugated anti-His tag mouse antibody (R&D Systems) in the absence of any L2K bispecific antibody.

[5] = molecular target: T3, biotinylated recombinant human GPC3(560) (human, biotin on the C-terminal BirA substrate peptide ; Biotin on a lysine of the C-terminal BirA substrate peptide, which is not in the letters.); experiment: SPR, Biacore X100, single-cycle kinetics, bt-GPC3(560) captured on chip, 1:1 model
T3 construct: Made in E. coli BL21 (pET-27b) from inclusion bodies and biotinylated with BirA; also called bt-GPC3(560); soluble bt-GPC3(560) protein
Experimental: All of the proteins used in the assay were diluted in HBS-E buffer prior to use. Briefly, 5-10 μg/ml of bt-GPC3₍₅₆₀₎ was immobilized onto a sensor chip pre-functionalized with CAPture Reagent and injected onto the flow cell. Affinity of the L2K bispecific antibodies for immobilized antigen was measured by injection of the various bispecific antibodies at 0.3-5 mg/ml with a 90 second association phase followed by a 90 second dissociation phase at a flow rate of 30 μl/min. At the end of each run, the surface of the sensor chip was regenerated using the reagents provided in the Biotin CAPture kit. Binding constants were determined by nonlinear regression analysis using a 1:1 binding model (BIACORE™ X-100 evaluation software, FIGS. 15A and 15B). The association-on-rate-kₒₙ, affinity constant-kₐ, dissociation constant-kd, and equilibrium dissociation constant-Kd were then calculated for each L2K clone (Table 14).

[6] = molecular target: T1, cell surface-bound human GPC3 on GPC3+ …; experiment: FACS titration on GPC3+ HepG2 cells, anti-His detection
Experimental: as §1

B2: #51 GPC3A L2K (bispecific antibody)
tandem di-scFv: QAVLTQPSSASGAPGQRVTISCTGGSSNIGAGYDVHWYQQLPGTAPKLLIYGNSNRPSGVPDRFSGSKSGTSASLAITGLQAEDEADYYCQSYDSSLSGYVFGTGTKVTVLGSRGGGGSGGGGSGGGGSLEMAQVQLVQSGAEVKKPGSSVKVSCKASGGAFSSYAISWVRQAPGQGLEWMGGIIPIFGTANYAQKFQGRVTITADESTSTAYMELSSLRSEDTAVYYCARMLYLSGRYYWDSWGQGTLVTVSSTSGGGGSDVQLVQSGAEVKKPGASVKVSCKASGYTFTRYTMHWVRQAPGQGLEWIGYINPSRGYTNYADSVKGRFTITTDKSTSTAYMELSSLRSEDTATYYCARYYDDHYCLDYWGQGTTVTVSSGEGTSTGSGGSGGSGGADDIVLTQSPATLSLSPGERATLSCRASQSVSYMNWYQQKPGKAPKRWIYDTSKVASGVPARFSGSGSGTDYSLTINSLEAEDAATYYCQQWSSNPLTFGGGTKVEIKHHHHHH
notes: also called GPC3A-51 L2K
Median : APC-A [2]: 677
Median : PE-A [3]: 12200

B3: GPC3A-37 L2K (bispecific antibody)
chain: QSVLTQPPSVSAAPGQRVTISCSGTRSNIGSDYVSWYQHLPGTAPKLLVYGDNLRPSGIPDRFSASKSGTSATLGITGLQTGDEADYYCGTWDYTLNGVVFGGGTKLTVLGSRGGGGSGGGGSGGGGSLEMAQVQLVESGGGLVQPGGSLRLSCAASGFTFSSYAMSWVRQAPGKGLEWVSVIYSGGSSTYYADSVKGRFTISRDNSKNTLYLQMNSLRAEDTAVYYCARTSYLNHGDYWGQGTLVTVSSTSGGGGSDVQLVQSGAEVKKPGASVKVSCKASGYTFTRYTMHWVRQAPGQGLEWIGYINPSRGYTNYADSVKGRFTITTDKSTSTAYMELSSLRSEDTATYYCARYYDDHYCLDYWGQGTTVTVSSGEGTSTGSGGSGGSGGADDIVLTQSPATLSLSPGERATLSCRASQSVSYMNWYQQKPGKAPKRWIYDTSKVASGVPARFSGSGSGTDYSLTINSLEAEDAATYYCQQWSSNPLTFGGGTKVEIKHHHHHH
notes: also called anti-CD3/anti-GPC3 BsAb
Kd [4]: 0.92 nM
Kd [5]: 5.1 nM
koff [5]: 0.00289 s⁻¹
kon [5]: 567000 M⁻¹ s⁻¹
EC50 [6]: 0.048 µg/mL

B7: #39 GPC3A L2K (bispecific antibody)
tandem di-scFv: SYVLTQPPSVSVAPGKTARITCGGNNIGSKSVHWYQQKPGQAPVLVIYYDSDRPSGIPERFSGSNSGNTATLTISRVEAGDEADYYCQVWDSSSDHWVFGGGTKLTVLGSRGGGGSGGGGSGGGGSLEMAQVQLVQSGGGLVHPGGSLRLSCAGSGFTFSSYAMHWVRQAPGKGLEWVSAIGTGGGTYYADSVKGRFTISRDNAKNSLYLQMNSLRAEDTAVYYCARYGRKSIDAWGQGTLVTVSSTSGGGGSDVQLVQSGAEVKKPGASVKVSCKASGYTFTRYTMHWVRQAPGQGLEWIGYINPSRGYTNYADSVKGRFTITTDKSTSTAYMELSSLRSEDTATYYCARYYDDHYCLDYWGQGTTVTVSSGEGTSTGSGGSGGSGGADDIVLTQSPATLSLSPGERATLSCRASQSVSYMNWYQQKPGKAPKRWIYDTSKVASGVPARFSGSGSGTDYSLTINSLEAEDAATYYCQQWSSNPLTFGGGTKVEIKHHHHHH
notes: also called GPC3A-39 L2K
Median : APC-A [2]: 445
Median : PE-A [3]: 6380

B8: GPC3A-55 L2K (bispecific antibody)
chain: QPVLTQPPSVSVAPGKTARITCGGNNIGSKSVHWYQQKPGQAPVLVIYYDSDRPSGIPERFSGSNSGNTATLTISRVEAGDEADYYCQVWDSSSDHYVFGTGTKVTVLGSRGGGGSGGGGSGGGGSLEMAQVQLVQSGAEVKKPGASVKVSCKASGYTFTSYYMHWVRQAPGQGLEWMGIINPSGGSTSYAQKFQGRVTMTRDTSTSTVYMELSSLRSEDTAVYYCARWHGGPYDYWGQGTLVTVSSTSGGGGSDVQLVQSGAEVKKPGASVKVSCKASGYTFTRYTMHWVRQAPGQGLEWIGYINPSRGYTNYADSVKGRFTITTDKSTSTAYMELSSLRSEDTATYYCARYYDDHYCLDYWGQGTTVTVSSGEGTSTGSGGSGGSGGADDIVLTQSPATLSLSPGERATLSCRASQSVSYMNWYQQKPGKAPKRWIYDTSKVASGVPARFSGSGSGTDYSLTINSLEAEDAATYYCQQWSSNPLTFGGGTKVEIKHHHHHH
Kd [4]: 0.86 nM
Kd [5]: 2.3 nM
koff [5]: 0.00161 s⁻¹
kon [5]: 705000 M⁻¹ s⁻¹
EC50 [6]: 0.045 µg/mL

B9: GPC3A-45 L2K (bispecific antibody)
chain: QSVLTQPPSVSGTPGQRVIISCPGSTSNIGTNTVNWYQQFPGTAPKLLIYSNNQRPSGVPDRFSGSKSGTSASLAISGLQSEDEADYYCAAWDDSLNGVVFGGGTKLTVLGSRGGGGSGGGGSGGGGSLEMAQMQLVQSGGGLVKPGGSLRLSCAASGFTFSDYYMSWIRQAPGKGLEWVSYISSSGSTIYYADSVKGRFTISRDNAKNSLYLQMNSLRAEDTAVYYCARASDLYGDWGQGTLVTVSSTSGGGGSDVQLVQSGAEVKKPGASVKVSCKASGYTFTRYTMHWVRQAPGQGLEWIGYINPSRGYTNYADSVKGRFTITTDKSTSTAYMELSSLRSEDTATYYCARYYDDHYCLDYWGQGTTVTVSSGEGTSTGSGGSGGSGGADDIVLTQSPATLSLSPGERATLSCRASQSVSYMNWYQQKPGKAPKRWIYDTSKVASGVPARFSGSGSGTDYSLTINSLEAEDAATYYCQQWSSNPLTFGGGTKVEIKHHHHHH
Kd [4]: 2.4 nM
Kd [5]: 3.5 nM
koff [5]: 0.000455 s⁻¹
kon [5]: 128000 M⁻¹ s⁻¹
EC50 [6]: 0.12 µg/mL

B10: GPC3A-34 L2K (bispecific antibody)
chain: QPVLTQPPSASGTPGQRVTISCSGSSSNIGSNNVIWYQQLPGAAPKLLIYSNHRRPSGVPDRFSGSRSGTSASLAISGLQSEDEADYYCAAWDDSLDGYLFGTGTKVTVLGSRGGGGSGGGGSGGGGSLEMAQVQLQQWGAGLLKPSETLSLTCAVYGGSFSGYYWSWIRQPPGKGLEWIGEINHSGSTNYNPSLKSRVTISVDTSKNQFSLELSSVTAADTAVYYCARGYGGRFDYWGQGTLVTVSSTSGGGGSDVQLVQSGAEVKKPGASVKVSCKASGYTFTRYTMHWVRQAPGQGLEWIGYINPSRGYTNYADSVKGRFTITTDKSTSTAYMELSSLRSEDTATYYCARYYDDHYCLDYWGQGTTVTVSSGEGTSTGSGGSGGSGGADDIVLTQSPATLSLSPGERATLSCRASQSVSYMNWYQQKPGKAPKRWIYDTSKVASGVPARFSGSGSGTDYSLTINSLEAEDAATYYCQQWSSNPLTFGGGTKVEIKHHHHHH
notes: also called anti-GPC3xCD3 di-scFv derived from GPC3A-34
Kd [4]: 2 nM
Kd [5]: 3.5 nM
koff [5]: 0.0014 s⁻¹
kon [5]: 400000 M⁻¹ s⁻¹
EC50 [6]: 0.11 µg/mL

Continued, values first:

Median : PE-A [1]: 9860
B1: anti-GPC3 mIgG1 clone A-46 (antibody, V domains shown)
VH: QVQLVQSGAEVKKPGASVTVSCKASGYRFSNYGVSWVRQAPGQGLEWMGWISGSNGNTNYAQKFLGRVTMTTDTSTTTAYMELSSLRSDDTAVYYCARGNRRYYSPIIDPWGQGTLVTVSS
VL: QAVLTQPPSVSGTPGQRVTISCSGSSSNFGSNTVHWYQQVPGTAPKLLIFSNTQRPSEIPDRFSGSKSGTSASLAISGLQSEDEADYYCAAWDDSLTGVVFGGGTKLTVLG
notes: Fused to mouse IgG1 heavy chain and light chain constant regions; also called GPC3A mIgG1 clone A-46

Median : PE-A [1]: 8030
B4: anti-GPC3 mIgG1 clone A-58 (antibody, V domains shown)
VH: QVQLVQSGADVRKPGASVKVSCKASGYTFASHGISWVRQAPGQGLEWLGWISPYTGNTNYAQKFQGRVTMATDTSTSTAYMELRSLRSDDTAIYYCARGKRTLASCFDYWGQGTLVTVSS
VL: QSVLTQPPSVSVAPGKTARITCGGNNIGSKSVHWYQQKPGQAPVLVVYDDSDRPSGIPERFSGSNSGNTATLTISRVEAGDEADYYCQVWDSSSDHVFGTGTKVTVLG
notes: Fused to mouse IgG1 heavy chain and light chain constant regions; also called GPC3A mIgG1 clone A-58

Median : PE-A [1]: 6380
B5: anti-GPC3 mIgG1 clone A-39 (antibody, V domains shown)
VH: QVQLVQSGGGLVHPGGSLRLSCAGSGFTFSSYAMHWVRQAPGKGLEWVSAIGTGGGTYYADSVKGRFTISRDNAKNSLYLQMNSLRAEDTAVYYCARYGRKSIDAWGQGTLVTVSS
VL: SYVLTQPPSVSVAPGKTARITCGGNNIGSKSVHWYQQKPGQAPVLVIYYDSDRPSGIPERFSGSNSGNTATLTISRVEAGDEADYYCQVWDSSSDHWVFGGGTKLTVLG
notes: also called anti-GPC3 mIgG1 A-39

Median : PE-A [1]: 5630
B6: anti-GPC3 mIgG1 clone A-56 (antibody, V domains shown)
VH: QVQLQQSGAEVKKFGASVKVSCKASGYSFNDYYIHWVRQAPGQGLEWMGWINPNNGDTKYEKKWQGRVTMTRDTSITTAYMELSSLRSDDTAVYYCARFSTHNWWWPTYDYWGQGTLVTVSS
VL: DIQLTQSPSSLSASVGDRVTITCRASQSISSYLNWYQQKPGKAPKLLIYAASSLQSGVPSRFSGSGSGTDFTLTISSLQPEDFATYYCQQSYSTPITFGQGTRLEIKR
notes: Fused to mouse IgG1 heavy chain and light chain constant regions
